IntAct's records for PubMed 16697956

B1: BH3-interacting domain death agonist (Homo sapiens), P55957 (parent)
chain: MDCEVNNGSSLRDECITNLLVFGFLQSCSDNSFRRELDALGHELPVLAPQWEGYDELQTDGNRSSHSRLGRIEADSESQEDIIRNIARHLAQVGDSMDRSIPPGLVNGLALQLRNTSRSEEDRNRDLATALEQLLQAYPRDMEKEKTMLVLALLLAKKVASHTPSLLRDVFHTTVNFINQNLRTYVRSLARNGMD
partner: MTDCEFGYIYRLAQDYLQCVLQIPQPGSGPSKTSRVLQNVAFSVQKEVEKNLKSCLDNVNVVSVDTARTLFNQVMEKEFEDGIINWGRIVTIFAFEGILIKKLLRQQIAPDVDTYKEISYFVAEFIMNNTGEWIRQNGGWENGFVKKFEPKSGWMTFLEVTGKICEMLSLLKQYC
B2: BH3-interacting domain death agonist (Homo sapiens), P55957 (parent)
chain: B1 chain
B3: Bcl-2-like protein 2 (Homo sapiens), Q92843 (parent)
chain: MATPASAPDTRALVADFVGYKLRQKGYVCGAGPGEGPAADPLHQAMRAAGDEFETRFRRTFSDLAAQLHVTPGSAQQRFTQVSDELFQGGPNWGRLVAFFVFGAALCAESVNKEMEPLVGQVQEWMVAYLETQLADWIHSSGGWAEFTALYGDGALEEARRLREGNWASVRTVLTGAVALGALVTVGAFFASK
B4: BH3-interacting domain death agonist (Homo sapiens), P55957 (parent)
chain: B1 chain
partner: B3 chain

Variants of: B1
Details: with BCL2A1, Q16548

Variant	effect of a mutation on the interaction
MDCEVNNGSSLRDECITNLLVFGFLQSCSDNSFRRELDALGHELPVLAPQWEGYDELQTDGNRSSHSRLGRIEADSESQEDIIRNIARHAAQVGASMDRSIPPGLVNGLALQLRNTSRSEEDRNRDLATALEQLLQAYPRDMEKEKTMLVLALLLAKKVASHTPSLLRDVFHTTVNFINQNLRTYVRSLARNGMD	disrupting interaction

Variants of: B2
Details: with bcl2_human BCL2, P10415
Chain of bcl2_human BCL2, P10415 (P10415 whole entry): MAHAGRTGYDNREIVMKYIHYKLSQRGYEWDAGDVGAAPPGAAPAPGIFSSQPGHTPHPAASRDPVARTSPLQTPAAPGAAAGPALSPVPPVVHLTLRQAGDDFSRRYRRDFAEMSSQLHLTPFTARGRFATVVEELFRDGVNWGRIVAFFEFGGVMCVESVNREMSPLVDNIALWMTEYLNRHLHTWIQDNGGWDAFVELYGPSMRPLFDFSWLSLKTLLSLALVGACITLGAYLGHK

Variant	effect of a mutation on the interaction
MDCEVNNGSSLRDECITNLLVFGFLQSCSDNSFRRELDALGHELPVLAPQWEGYDELQTDGNRSSHSRLGRIEADSESQEDIIRNIARHAAQVGASMDRSIPPGLVNGLALQLRNTSRSEEDRNRDLATALEQLLQAYPRDMEKEKTMLVLALLLAKKVASHTPSLLRDVFHTTVNFINQNLRTYVRSLARNGMD	disrupting interaction

Variants of: B2
Details: with BCL2L1, Q07817
Chain of BCL2L1, Q07817 (Q07817 whole entry): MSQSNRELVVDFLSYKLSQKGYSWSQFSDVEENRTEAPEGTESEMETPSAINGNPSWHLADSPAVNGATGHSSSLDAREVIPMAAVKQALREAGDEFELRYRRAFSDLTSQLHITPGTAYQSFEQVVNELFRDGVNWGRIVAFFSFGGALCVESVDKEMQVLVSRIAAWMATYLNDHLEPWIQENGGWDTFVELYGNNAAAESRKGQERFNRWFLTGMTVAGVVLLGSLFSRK

Variant	effect of a mutation on the interaction
MDCEVNNGSSLRDECITNLLVFGFLQSCSDNSFRRELDALGHELPVLAPQWEGYDELQTDGNRSSHSRLGRIEADSESQEDIIRNIARHAAQVGASMDRSIPPGLVNGLALQLRNTSRSEEDRNRDLATALEQLLQAYPRDMEKEKTMLVLALLLAKKVASHTPSLLRDVFHTTVNFINQNLRTYVRSLARNGMD	disrupting interaction

Variants of: B2
Details: with mcl1_human MCL1, Q07820
Chain of mcl1_human MCL1, Q07820 (Q07820 whole entry): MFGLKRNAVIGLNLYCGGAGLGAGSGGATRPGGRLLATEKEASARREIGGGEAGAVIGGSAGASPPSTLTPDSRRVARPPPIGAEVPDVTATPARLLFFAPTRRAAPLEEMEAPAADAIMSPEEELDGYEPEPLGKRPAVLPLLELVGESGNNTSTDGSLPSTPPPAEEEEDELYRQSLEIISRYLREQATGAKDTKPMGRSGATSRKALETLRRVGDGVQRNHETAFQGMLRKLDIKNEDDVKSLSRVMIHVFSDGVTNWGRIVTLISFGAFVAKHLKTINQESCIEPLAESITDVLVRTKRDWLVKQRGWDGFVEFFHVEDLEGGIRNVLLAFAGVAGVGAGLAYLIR

Variant	effect of a mutation on the interaction
MDCEVNNGSSLRDECITNLLVFGFLQSCSDNSFRRELDALGHELPVLAPQWEGYDELQTDGNRSSHSRLGRIEADSESQEDIIRNIARHAAQVGASMDRSIPPGLVNGLALQLRNTSRSEEDRNRDLATALEQLLQAYPRDMEKEKTMLVLALLLAKKVASHTPSLLRDVFHTTVNFINQNLRTYVRSLARNGMD	disrupting interaction

Variants of: B3
Details: with bid_mouse Bid

Variant	effect of a mutation on the interaction
MATPASAPDTRALVADFVGYKLRQKGYVCGAGPGEGPAADPLHQAMRAAGDEFETRFRRTFSDLAAQLHVTPGSAQQRFTQVSDELFQGGPNWGPLVAFFVFGAALCAESVNKEMEPLVGQVQEWMVAYLETQLADWIHSSGGWAEFTALYGDGALEEARRLREGNWASVRTVLTGAVALGALVTVGAFFASK	disrupting interaction

Variants of: B4
Details: with BCL2L2, Q92843

Variant	effect of a mutation on the interaction
MDCEVNNGSSLRDECITNLLVFGFLQSCSDNSFRRELDALGHELPVLAPQWEGYDELQTDGNRSSHSRLGRIEADSESQEDIIRNIARHAAQVGASMDRSIPPGLVNGLALQLRNTSRSEEDRNRDLATALEQLLQAYPRDMEKEKTMLVLALLLAKKVASHTPSLLRDVFHTTVNFINQNLRTYVRSLARNGMD	disrupting interaction
